Experimental data from patent US20250043302A1, “MUTATED HYDROXYPHENYLPYRUVATE DIOXYGENASE POLYPEPTIDE, AND CODING GENE AND USE THEREOF” (BEIJING DABEINONG BIOTECHNOLOGY CO., LTD., priority 2021, published 2025).
Numbering of substitutions follows the chain as printed. Names and notes keep the numbering of the source.

What was measured:
[1] = test system: Arabidopsis thaliana T1 plants; assay: Mesotrione tolerance of transgenic Arabidopsis thaliana T1 plants (spray, bleached leaf area grade, damage score); type: in vivo; set-up: Scores: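 damage score 0-100 computed as Σ(N×S)/(T×M)×100 over grades 0-3 with higher meaning more damage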; settings: Table 12; for Classification and statistics of the grade of pesticide damage Grade 0: number of plants at grade 0; for Classification and statistics of the grade of pesticide damage Grade 1: number of plants at grade 1; for Classification and statistics of the grade of pesticide damage Grade 2: number of plants at grade 2; for Classification and statistics of the grade of pesticide damage Grade 3: number of plants at grade 3; for Scores: pesticide damage score
Excerpt: (§1) T1 transformants were initially selected from the untransformed seeds using a glufosinate selection scheme. The Arabidopsis thaliana T1 plants (AsHPPD-02) into which the AsHPPD-02 nucleotide sequence was introduced, the Arabidopsis thaliana T1 plants (AsHPPDm-F372A-02) into which the AsHPPDm-F372A-02 nucleotide sequence was introduced, the Arabidopsis thaliana T1 plants (AsHPPDm-F383W-02) into which the AsHPPDm-F383W-02 nucleotide sequence was introduced, the Arabidopsis thaliana T1 plants (AsHPPDm-F372A-F383W-02) into which the AsHPPDm-F372A-F383W-02 nucleotide sequence was introduced, the Arabidopsis thaliana T1 plants (DBN11726N) into which the control recombinant expression vector DBN11726N was introduced, and the wild-type Arabidopsis thaliana plants (CK) (18 days after sowing) were sprayed respectively with topramezone at three concentrations (100 g ai/ha (four-fold field concentration, 4×), 200 g ai/ha (eight-fold field concentration, 8×), and 0 g ai/ha (water, 0×)), isoxaflutole at three concentrations (140 g ai/ha (two-fold field concentration, 2×), 280 g ai/ha (four-fold field concentration, 4×), and 0 g ai/ha (water, 0×)), and mesotrione at three concentrations (210 g ai/ha (two-fold field concentration, […]), 420 g ai/ha (four-fold field concentration, 4×), and 0 g ai/ha (water, 0×)), to determine the tolerance of Arabidopsis thaliana to the herbicides. The degree of damage caused by the herbicide was measured for each plant according to the proportion of bleached leaf area (the proportion of bleached leaf area=bleached leaf area/total leaf area×100%) 7 days after spraying (7 DAT): the case where there is basically no bleached phenotype is defined as grade 0, the case where the proportion of bleached leaf area is less than 50% is defined as grade 1, the case where the proportion of bleached leaf area is more than 50% is defined as grade 2, and the case where the proportion of bleached leaf area is 100% grade is defined as grade 3.
(§2) According to the method as described above in point 6 of Example 1, the aforementioned Arabidopsis thaliana T1 plants and wild-type Arabidopsis thaliana plants (CK) (18 days after sowing) were sprayed respectively with topramezone at three concentrations (25 g ai/ha (one-fold field concentration, 1×). 100 g ai/ha (four-fold field concentration, 4×), and 0 g ai/ha (water, 0×)), isoxaflutole at three concentrations (35 g ai/ha (half-fold field concentration, 0.5×). 70 g ai/ha (one-fold field concentration, 1×), and 0 g ai/ha (water, 0×)), and mesotrione at three concentrations (52.5 g ai/ha (half-fold field concentration, 0.5×), 105 g ai/ha (one-fold field concentration, 1×), and 0 g ai/ha (water, 0×)) to detect the tolerance of Arabidopsis thaliana to the herbicides.
(§3) According to the method as described above in point 6 of Example 1, the aforementioned Arabidopsis thaliana T1 plants and wild-type Arabidopsis thaliana plants (CK) (18 days after sowing) were sprayed with topramezone at three different concentrations (i.e., 100 g ai/ha (four-fold field concentration, 4×), 200 g ai/ha (eight-fold field concentration, 8×) and 0 g ai/ha (water, 0×)), isoxaflutole at three different concentrations (i.e., 140 g ai/ha (two-fold field concentration, 2×), 280 g ai/ha (four-fold field concentration, 4×) and 0 g ai/ha (water, 0×)), and mesotrione at three different concentrations (i.e., 210 g ai/ha (two-fold field concentration, 2×), 420 g ai/ha (four-fold field concentration, 4×) and 0 g ai/ha (water, 0×)) respectively to detect the herbicide tolerance of Arabidopsis thaliana. […]

[2] = test system: Arabidopsis thaliana T1 plants; assay: Isoxaflutole tolerance of transgenic Arabidopsis thaliana T1 plants (spray, bleached leaf area grade, damage score); type: in vivo; settings: Table 11; for Classification and statistics of the grade of pesticide damage Grade 0: number of plants at grade 0; for Classification and statistics of the grade of pesticide damage Grade 1: number of plants at grade 1; for Classification and statistics of the grade of pesticide damage Grade 2: number of plants at grade 2; for Classification and statistics of the grade of pesticide damage Grade 3: number of plants at grade 3; for Scores: pesticide damage score;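 as to Scores: Weighted damage index from 0 to 100 where higher means more damage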
Excerpt: as §1, §2, §3

B1: AsHPPDm-A107-F372A-02: nucleotide sequence encoding Avena sativa HPPD with A107 deletion+F372A; vector DBN11778 (nucleic acid)
DNA: ATGCCACCTACTCCAGCTACAGCTACTGGTGCTGCTGCTGCTGCCGTTACTCCTGAGCACGCTGCCAGGTCATTCCCCAGGGTGGTTCGCGTGAACCCCAGATCTGATAGGTTCCCAGTTCTGAGCTTCCACCATGTTGAGCTGTGGTGCGCTGATGCTGCTTCTGCTGCTGGCAGGTTCTCTTTCGCTCTTGGTGCTCCACTCGCTGCTAGATCTGATCTGTCTACAGGAAATAGCGCTCATGCCTCACTCCTGCTTCGCTCAGGTGCTTTGGCCTTCCTCTTCACCGCTCCATATGCTCCCCCACCTCAGGAGGCTACTGCTGCTGCTACAGCCTCCATTCCAAGCTTCTCAGCTGATGCCGCTAGAACCTTCGCTGCTGCTCATGGACTTGCCGTGAGGTCTGTTGGTGTTCGCGTGGCTGATGCTGCTGAGGCTTTCAGAGTTTCCGTTGCCGGCGGAGCTAGGCCAGCTTTCGCTCCTGCTGATTTGGGACATGGTTTCGGCCTGGCTGAGGTTGAGCTTTACGGTGACGTGGTTCTCCGCTTCGTGTCTTACCCAGATGAGACTGACCTGCCTTTCCTTCCCGGCTTCGAGAGAGTTTCCTCTCCTGGTGCCGTGGATTACGGCCTGACAAGGTTCGACCACGTGGTTGGAAACGTTCCCGAGATGGCTCCAGTGATCGATTACATGAAGGGCTTCCTTGGATTCCATGAGTTCGCCGAGTTCACTGCTGAGGACGTGGGAACCACTGAGTCCGGTTTGAACTCTGTGGTTCTCGCCAACAATTCTGAGGCTGTTTTGCTCCCTCTGAATGAGCCTGTGCATGGAACCAAGAGGAGAAGCCAGATTCAAACTTACCTGGAGTACCACGGTGGCCCTGGAGTTCAGCATATCGCCCTTGCTTCTAATGATGTGTTGCGCACACTCAGAGAGATGCGCGCCAGAACCCCCATGGGAGGTTTCGAGTTCATGGCCCCACCACAGGCTAAGTACTACGAGGGCGTTAGAAGGATTGCTGGAGACGTGTTGAGCGAGGAGCAGATCAAGGAGTGCCAAGAGCTGGGTGTTCTTGTGGATAGGGATGACCAGGGCGTTCTGCTTCAAATTGCCACTAAGCCAGTGGGCGACCGCCCTACATTCTTCCTTGAGATGATTCAAAGAATCGGCTGCATGGAGAAGGATGAGGTTGGACAGGAGTACCAAAAGGGCGGATGCGGTGGCTTCGGAAAGGGTAACTTCAGCGAGTTGTTCAAGTCAATCGAGGACTACGAGAAGAGCCTCGAGGTGAAGCAGTCAGTGGTTGCCCAAAAGTCCTGA
modifications: AsHPPDm-A107-F372A-02 Nucleotide Sequence
notes: vector DBN11778
Resistance evaluation ([1]; mesotrione 210 g ai/ha (2×)): Moderately | Classification and statistics of the grade of pesticide damage Grade 0 ([1]; mesotrione 210 g ai/ha (2×)): 6 | Classification and statistics of the grade of pesticide damage Grade 1 ([1]; mesotrione 210 g ai/ha (2×)): 7 | Classification and statistics of the grade of pesticide damage Grade 2 ([1]; mesotrione 210 g ai/ha (2×)): 1 | Classification and statistics of the grade of pesticide damage Grade 3 ([1]; mesotrione 210 g ai/ha (2×)): 2 | Scores ([1]; mesotrione 210 g ai/ha (2×)): 31 | Resistance evaluation ([1]; mesotrione 420 g ai/ha (4×)): Poorly resistant | Classification and statistics of the grade of pesticide damage Grade 0 ([1]; mesotrione 420 g ai/ha (4×)): 1 | Classification and statistics of the grade of pesticide damage Grade 1 ([1]; mesotrione 420 g ai/ha (4×)): 7 | Classification and statistics of the grade of pesticide damage Grade 2 ([1]; mesotrione 420 g ai/ha (4×)): 8 | Classification and statistics of the grade of pesticide damage Grade 3 ([1]; mesotrione 420 g ai/ha (4×)): 0 | Scores ([1]; mesotrione 420 g ai/ha (4×)): 48 | Resistance evaluation ([2]; isoxaflutole 140 g ai/ha (2×)): Moderately | Classification and statistics of the grade of pesticide damage Grade 0 ([2]; isoxaflutole 140 g ai/ha (2×)): 5 | Classification and statistics of the grade of pesticide damage Grade 1 ([2]; isoxaflutole 140 g ai/ha (2×)): 7 | Classification and statistics of the grade of pesticide damage Grade 2 ([2]; isoxaflutole 140 g ai/ha (2×)): 4 | Classification and statistics of the grade of pesticide damage Grade 3 ([2]; isoxaflutole 140 g ai/ha (2×)): 0 | Scores ([2]; isoxaflutole 140 g ai/ha (2×)): 31 | Resistance evaluation ([2]; isoxaflutole 280 g ai/ha (4×)): Poorly resistant | Classification and statistics of the grade of pesticide damage Grade 0 ([2]; isoxaflutole 280 g ai/ha (4×)): 0 | Classification and statistics of the grade of pesticide damage Grade 1 ([2]; isoxaflutole 280 g ai/ha (4×)): 1 | Classification and statistics of the grade of pesticide damage Grade 2 ([2]; isoxaflutole 280 g ai/ha (4×)): 15 | Classification and statistics of the grade of pesticide damage Grade 3 ([2]; isoxaflutole 280 g ai/ha (4×)): 0 | Scores ([2]; isoxaflutole 280 g ai/ha (4×)): 65

B2: AsHPPDm-A107-F383W-02: nucleotide sequence encoding Avena sativa HPPD with A107 deletion+F383W; vector DBN11779 (nucleic acid)
DNA: B1 DNA with G1111T, C1112T, T1145G, C1146G
modifications: AsHPPDm-A107-F383W-02 Nucleotide Sequence
notes: vector DBN11779
Resistance evaluation ([1]; mesotrione 210 g ai/ha (2×)): Moderately | Classification and statistics of the grade of pesticide damage Grade 0 ([1]; mesotrione 210 g ai/ha (2×)): 4 | Classification and statistics of the grade of pesticide damage Grade 1 ([1]; mesotrione 210 g ai/ha (2×)): 9 | Classification and statistics of the grade of pesticide damage Grade 2 ([1]; mesotrione 210 g ai/ha (2×)): 3 | Classification and statistics of the grade of pesticide damage Grade 3 ([1]; mesotrione 210 g ai/ha (2×)): 0 | Scores ([1]; mesotrione 210 g ai/ha (2×)): 31 | Resistance evaluation ([1]; mesotrione 420 g ai/ha (4×)): Poorly resistant | Classification and statistics of the grade of pesticide damage Grade 0 ([1]; mesotrione 420 g ai/ha (4×)): 0 | Classification and statistics of the grade of pesticide damage Grade 1 ([1]; mesotrione 420 g ai/ha (4×)): 2 | Classification and statistics of the grade of pesticide damage Grade 2 ([1]; mesotrione 420 g ai/ha (4×)): 14 | Classification and statistics of the grade of pesticide damage Grade 3 ([1]; mesotrione 420 g ai/ha (4×)): 0 | Scores ([1]; mesotrione 420 g ai/ha (4×)): 63 | Resistance evaluation ([2]; isoxaflutole 140 g ai/ha (2×)): Moderately | Classification and statistics of the grade of pesticide damage Grade 0 ([2]; isoxaflutole 140 g ai/ha (2×)): 7 | Classification and statistics of the grade of pesticide damage Grade 1 ([2]; isoxaflutole 140 g ai/ha (2×)): 7 | Classification and statistics of the grade of pesticide damage Grade 2 ([2]; isoxaflutole 140 g ai/ha (2×)): 1 | Classification and statistics of the grade of pesticide damage Grade 3 ([2]; isoxaflutole 140 g ai/ha (2×)): 1 | Scores ([2]; isoxaflutole 140 g ai/ha (2×)): 25 | Resistance evaluation ([2]; isoxaflutole 280 g ai/ha (4×)): Poorly resistant | Classification and statistics of the grade of pesticide damage Grade 0 ([2]; isoxaflutole 280 g ai/ha (4×)): 4 | Classification and statistics of the grade of pesticide damage Grade 1 ([2]; isoxaflutole 280 g ai/ha (4×)): 4 | Classification and statistics of the grade of pesticide damage Grade 2 ([2]; isoxaflutole 280 g ai/ha (4×)): 7 | Classification and statistics of the grade of pesticide damage Grade 3 ([2]; isoxaflutole 280 g ai/ha (4×)): 1 | Scores ([2]; isoxaflutole 280 g ai/ha (4×)): 44
